This is an account of results in paper PMC9463443.

This data set has as its target CCANdeltaCT (CENP-LN, CENP-HIKM, CENP-OPQUR; no CENP-C, no CENP-TWSX) (Homo sapiens, UniProt Q8N0S6;Q96H22;Q9H3R5;Q92674;Q9BS16;Q9NSP4;Q9BU64;Q6IPU0;Q7L2Z9;Q71F23;Q13352 …). Kind of data set: EMSA; 300 mM NaCl; EMSA: 20 mM HEPES-Na pH 7.5, 300 mM NaCl, 0.5 mM TCEP, 10 min on ice, 1% agarose in 0.5x TAE; SEC: Superose 6 (analytical SEC buffer not given in the material). The note with it: protein: recombinant; tags: His6 C-term on CENP-N and CENP-Q; copies: 1;1;1;1;1;1;1;1;1;1;1; blunt. For orientation: A gel shift assay detects complexes by their altered migration in electrophoresis.

B1: 147 bp DNA (Widom 601) (dsDNA)
DNA 1: ATCGAGAATCCCGGTGCCGAGGCCGCTCAATTGGTCGTAGACAGCTCTAGCACCGCTTAAACGCACGTACGCGCTGTCCCCCGCGTTTTAACCGCCAAGGGGATTACTCCCTAGTCTCCAGGCACGTGTCACATATATACATCCGAT
DNA 2: ATCGGATGTATATATGTGACACGTGCCTGGAGACTAGGGAGTAATCCCCTTGGCGGTTAAAACGCGGGGGACAGCGCGTACGTGCGTTTAAGCGGTGCTAGAGCTGTCTACGACCAATTGAGCGGCCTCGGCACCGGGATTCTCGAT
In the case of B1, the binding result is “binds”.
